Reference: US20250171562A1

What was measured:
[1] = molecular target: IgE on basophils of allergic donors (human) (UniProt P01854); assay: IgE surface stain on donor basophils, flow cytometry
[2] = molecular target: mixture of three Der p 2 specific recombinant human IgE clones H10, H12, P4E (human) (UniProt P01854); assay: RBL-SX38 IgE displacement, FACS
[3] = molecular target: IgE on basophils of allergic donors (human) (UniProt P01854); assay: displacement of IgE from FcεRI on basophils, whole blood of an allergic donor, flow cytometry of surface IgE [panel B]
[4] = molecular target: IgE on basophils of allergic donors (human) (UniProt P01854); assay: displacement of IgE from FcεRI on basophils, whole blood of an allergic donor, flow cytometry of surface IgE [panel C]

Chain of IgE on basophils of allergic donors (human) (P01854 1-428): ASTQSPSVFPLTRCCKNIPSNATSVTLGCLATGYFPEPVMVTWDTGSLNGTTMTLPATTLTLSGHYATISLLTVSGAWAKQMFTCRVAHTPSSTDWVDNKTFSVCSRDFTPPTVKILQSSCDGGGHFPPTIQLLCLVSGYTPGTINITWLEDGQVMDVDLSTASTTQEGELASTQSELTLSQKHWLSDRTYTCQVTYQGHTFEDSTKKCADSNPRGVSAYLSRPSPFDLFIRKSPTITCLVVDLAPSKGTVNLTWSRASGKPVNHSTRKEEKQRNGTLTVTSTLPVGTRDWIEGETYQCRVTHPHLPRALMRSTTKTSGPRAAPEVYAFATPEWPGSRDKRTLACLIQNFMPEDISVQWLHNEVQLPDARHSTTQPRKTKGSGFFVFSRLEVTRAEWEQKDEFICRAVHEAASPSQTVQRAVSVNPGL
Chain of mixture of three Der p 2 specific recombinant human IgE clones H10, H12, P4E (human) (P01854 other isoform, or with tags, fused parts or gaps): as the sequence (P01854 1-428) above, with L428K counted along it

Row | displacement effect on IgE surface expression [1] [%] | EC50 [2] [nM] | Max effect/effect 1 µM [2] [%] | EC50 (read off the curve) [3] [nM] | EC50 (read off the curve) [4] [nM] | Binder
1 | – | 7.9 | 90 | – | – | CIgG4F6A1(G4S)3 (Fc fusion) chain 1: GPPCPPCPAPEFLGGPSVFLFPPKPKDTLMISRTPEVTCVVVDVSQEDPEVQFNWYVDGVEVHNAKTKPREEQFNSTYRVVSVLTVLHQDWLNGKEYKCKVSNKGLPSSIEKTISKAKGQPREPQVYTLPPCQEEMTKNQVSLWCLVKGFYPSDIAVEWESNGQPENNYKTTPPVLDSDGSFFLYSRLTVDKSRWQEGNVFSCSVMHEALHNHYTQKSLSLSLGKGGGGSGGGGSGGGGSDVQLQESGGGLVQAGGSLRLSCAASGLTFGSYDMGWYRQAPGKQRELVGRIRNDGITYYADSVKGRFTMSRDNAKNTVYLQMNSLKPEDTAVYYCAADGTGLGHYDYWGQGTQVTVS chain 2: GPPCPPCPAPEFLGGPSVFLFPPKPKDTLMISRTPEVTCVVVDVSQEDPEVQFNWYVDGVEVHNAKTKPREEQFNSTYRVVSVLTVLHQDWLNGKEYKCKVSNKGLPSSIEKTISKAKGQPREPQVCTLPPSQEEMTKNQVSLSCAVKGFYPSDIAVEWESNGQPENNYKTTPPVLDSDGSFFLVSRLTVDKSRWQEGNVFSCSVMHEALHNHYTQKSLSLSLGKGGGGSGGGGSGGGGSEVQLLESGGGLVQPGGSLRLSCAASGFTFGNYDMAWVRQAPGKRPEWVSSIDTGGDITHYADSVKGRFTISRDNAKNTLYLQMNSLRPEDTAVYWCATDEEYALGPNEFDYYGQGTLVTVSS
2 | – | 16.6 | 98 | – | – | CIgG4F6A1(G4S)2 (Fc fusion) chain 1: GPPCPPCPAPEFLGGPSVFLFPPKPKDTLMISRTPEVTCVVVDVSQEDPEVQFNWYVDGVEVHNAKTKPREEQFNSTYRVVSVLTVLHQDWLNGKEYKCKVSNKGLPSSIEKTISKAKGQPREPQVYTLPPCQEEMTKNQVSLWCLVKGFYPSDIAVEWESNGQPENNYKTTPPVLDSDGSFFLYSRLTVDKSRWQEGNVFSCSVMHEALHNHYTQKSLSLSLGKGGGGSGGGGSDVQLQESGGGLVQAGGSLRLSCAASGLTFGSYDMGWYRQAPGKQRELVGRIRNDGITYYADSVKGRFTMSRDNAKNTVYLQMNSLKPEDTAVYYCAADGTGLGHYDYWGQGTQVTVS chain 2: GPPCPPCPAPEFLGGPSVFLFPPKPKDTLMISRTPEVTCVVVDVSQEDPEVQFNWYVDGVEVHNAKTKPREEQFNSTYRVVSVLTVLHQDWLNGKEYKCKVSNKGLPSSIEKTISKAKGQPREPQVCTLPPSQEEMTKNQVSLSCAVKGFYPSDIAVEWESNGQPENNYKTTPPVLDSDGSFFLVSRLTVDKSRWQEGNVFSCSVMHEALHNHYTQKSLSLSLGKGGGGSGGGGSEVQLLESGGGLVQPGGSLRLSCAASGFTFGNYDMAWVRQAPGKRPEWVSSIDTGGDITHYADSVKGRFTISRDNAKNTLYLQMNSLRPEDTAVYWCATDEEYALGPNEFDYYGQGTLVTVSS
3 | – | 3 | 99 | 4 | 3 | NIgG4B1A1(G4S)1 (Fc fusion) chain 1: QVQLQESGGGLVQTGGSLRLSCAVHGRTFSNTGMGWFRQAPGNERQFVAIISPSGTSTYYADSVKGRFTISRDPAKNTVYLQMNSLKMDDTAVYYCAASYGSNWSTLRHQRRNEYDAWGQGTQVAVSGGGGSGPPCPPCPAPEFLGGPSVFLFPPKPKDTLMISRTPEVTCVVVDVSQEDPEVQFNWYVDGVEVHNAKTKPREEQFNSTYRVVSVLTVLHQDWLNGKEYKCKVSNKGLPSSIEKTISKAKGQPREPQVYTLPPCQEEMTKNQVSLWCLVKGFYPSDIAVEWESNGQPENNYKTTPPVLDSDGSFFLYSRLTVDKSRWQEGNVFSCSVMHEALHNHYTQKSLSLSLGK chain 2: EVQLLESGGGLVQPGGSLRLSCAASGFTFGNYDMAWVRQAPGKRPEWVSSIDTGGDITHYADSVKGRFTISRDNAKNTLYLQMNSLRPEDTAVYWCATDEEYALGPNEFDYYGQGTLVTVSSGGGGSGPPCPPCPAPEFLGGPSVFLFPPKPKDTLMISRTPEVTCVVVDVSQEDPEVQFNWYVDGVEVHNAKTKPREEQFNSTYRVVSVLTVLHQDWLNGKEYKCKVSNKGLPSSIEKTISKAKGQPREPQVCTLPPSQEEMTKNQVSLSCAVKGFYPSDIAVEWESNGQPENNYKTTPPVLDSDGSFFLVSRLTVDKSRWQEGNVFSCSVMHEALHNHYTQKSLSLSLGK

The next lines start with the binder.

Row | Binder | displacement effect on IgE surface expression [1] [%] | EC50 [2] [nM] | Max effect/effect 1 µM [2] [%] | EC50 (read off the curve) [3] [nM] | EC50 (read off the curve) [4] [nM]
4 | A2+B1 (protein) VHH 1: EVQLLESGGGLVQPGGSLRLSCAASGFRFGNYDMAWVRQAPGKRYEWVSSIDTGGDITHYADSVKGRFTISRDNAKNTLYLQMNSLRPEDTAEYWCATDEEYALGPNEFDYYGQGTLVTVS VHH 2: QVQLQESGGGLVQTGGSLRLSCAVHGRTFSNTGMGWFRQAPGNERQFVAIISPSGTSTYYADSVKGRFTISRDPAKNTVYLQMNSLKMDDTAVYYCAASYGSNWSTLRHQRRNEYDAWGQGTQVAVS | 100 | – | – | – | –
5 | CIgG4B1A1(G4S3) (Fc fusion) chain 1: GPPCPPCPAPEFLGGPSVFLFPPKPKDTLMISRTPEVTCVVVDVSQEDPEVQFNWYVDGVEVHNAKTKPREEQFNSTYRVVSVLTVLHQDWLNGKEYKCKVSNKGLPSSIEKTISKAKGQPREPQVYTLPPCQEEMTKNQVSLWCLVKGFYPSDIAVEWESNGQPENNYKTTPPVLDSDGSFFLYSRLTVDKSRWQEGNVFSCSVMHEALHNHYTQKSLSLSLGKGGGGSGGGGSGGGGSQVQLQESGGGLVQTGGSLRLSCAVHGRTFSNTGMGWFRQAPGNERQFVAIISPSGTSTYYADSVKGRFTISRDPAKNTVYLQMNSLKMDDTAVYYCAASYGSNWSTLRHQRRNEYDAWGQGTQVAVS chain 2: GPPCPPCPAPEFLGGPSVFLFPPKPKDTLMISRTPEVTCVVVDVSQEDPEVQFNWYVDGVEVHNAKTKPREEQFNSTYRVVSVLTVLHQDWLNGKEYKCKVSNKGLPSSIEKTISKAKGQPREPQVCTLPPSQEEMTKNQVSLSCAVKGFYPSDIAVEWESNGQPENNYKTTPPVLDSDGSFFLVSRLTVDKSRWQEGNVFSCSVMHEALHNHYTQKSLSLSLGKGGGGSGGGGSGGGGSEVQLLESGGGLVQPGGSLRLSCAASGFTFGNYDMAWVRQAPGKRPEWVSSIDTGGDITHYADSVKGRFTISRDNAKNTLYLQMNSLRPEDTAVYWCATDEEYALGPNEFDYYGQGTLVTVSS | – | 14.1 | 99 | 6 | 4
6 | CIgG4B1A1(RS) (Fc fusion) chain 1: GPPCPPCPAPEFLGGPSVFLFPPKPKDTLMISRTPEVTCVVVDVSQEDPEVQFNWYVDGVEVHNAKTKPREEQFNSTYRVVSVLTVLHQDWLNGKEYKCKVSNKGLPSSIEKTISKAKGQPREPQVYTLPPCQEEMTKNQVSLWCLVKGFYPSDIAVEWESNGQPENNYKTTPPVLDSDGSFFLYSRLTVDKSRWQEGNVFSCSVMHEALHNHYTQKSLSLSLGKRSQVQLQESGGGLVQTGGSLRLSCAVHGRTFSNTGMGWFRQAPGNERQFVAIISPSGTSTYYADSVKGRFTISRDPAKNTVYLQMNSLKMDDTAVYYCAASYGSNWSTLRHQRRNEYDAWGQGTQVAVS chain 2: GPPCPPCPAPEFLGGPSVFLFPPKPKDTLMISRTPEVTCVVVDVSQEDPEVQFNWYVDGVEVHNAKTKPREEQFNSTYRVVSVLTVLHQDWLNGKEYKCKVSNKGLPSSIEKTISKAKGQPREPQVCTLPPSQEEMTKNQVSLSCAVKGFYPSDIAVEWESNGQPENNYKTTPPVLDSDGSFFLVSRLTVDKSRWQEGNVFSCSVMHEALHNHYTQKSLSLSLGKRSEVQLLESGGGLVQPGGSLRLSCAASGFTFGNYDMAWVRQAPGKRPEWVSSIDTGGDITHYADSVKGRFTISRDNAKNTLYLQMNSLRPEDTAVYWCATDEEYALGPNEFDYYGQGTLVTVSS | – | 84.9 | 92 | 10 | 20
7 | CIgG4B1A1(G4S)1 (Fc fusion) chain 1: GPPCPPCPAPEFLGGPSVFLFPPKPKDTLMISRTPEVTCVVVDVSQEDPEVQFNWYVDGVEVHNAKTKPREEQFNSTYRVVSVLTVLHQDWLNGKEYKCKVSNKGLPSSIEKTISKAKGQPREPQVYTLPPCQEEMTKNQVSLWCLVKGFYPSDIAVEWESNGQPENNYKTTPPVLDSDGSFFLYSRLTVDKSRWQEGNVFSCSVMHEALHNHYTQKSLSLSLGKGGGGSQVQLQESGGGLVQTGGSLRLSCAVHGRTFSNTGMGWFRQAPGNERQFVAIISPSGTSTYYADSVKGRFTISRDPAKNTVYLQMNSLKMDDTAVYYCAASYGSNWSTLRHQRRNEYDAWGQGTQVAVS chain 2: GPPCPPCPAPEFLGGPSVFLFPPKPKDTLMISRTPEVTCVVVDVSQEDPEVQFNWYVDGVEVHNAKTKPREEQFNSTYRVVSVLTVLHQDWLNGKEYKCKVSNKGLPSSIEKTISKAKGQPREPQVCTLPPSQEEMTKNQVSLSCAVKGFYPSDIAVEWESNGQPENNYKTTPPVLDSDGSFFLVSRLTVDKSRWQEGNVFSCSVMHEALHNHYTQKSLSLSLGKGGGGSEVQLLESGGGLVQPGGSLRLSCAASGFTFGNYDMAWVRQAPGKRPEWVSSIDTGGDITHYADSVKGRFTISRDNAKNTLYLQMNSLRPEDTAVYWCATDEEYALGPNEFDYYGQGTLVTVSS | – | 22.4 | 99 | 4 | 4
8 | CIgG4B1A1(G4S)2 (Fc fusion) chain 1: GPPCPPCPAPEFLGGPSVFLFPPKPKDTLMISRTPEVTCVVVDVSQEDPEVQFNWYVDGVEVHNAKTKPREEQFNSTYRVVSVLTVLHQDWLNGKEYKCKVSNKGLPSSIEKTISKAKGQPREPQVYTLPPCQEEMTKNQVSLWCLVKGFYPSDIAVEWESNGQPENNYKTTPPVLDSDGSFFLYSRLTVDKSRWQEGNVFSCSVMHEALHNHYTQKSLSLSLGKGGGGSGGGGSQVQLQESGGGLVQTGGSLRLSCAVHGRTFSNTGMGWFRQAPGNERQFVAIISPSGTSTYYADSVKGRFTISRDPAKNTVYLQMNSLKMDDTAVYYCAASYGSNWSTLRHQRRNEYDAWGQGTQVAVS chain 2: GPPCPPCPAPEFLGGPSVFLFPPKPKDTLMISRTPEVTCVVVDVSQEDPEVQFNWYVDGVEVHNAKTKPREEQFNSTYRVVSVLTVLHQDWLNGKEYKCKVSNKGLPSSIEKTISKAKGQPREPQVCTLPPSQEEMTKNQVSLSCAVKGFYPSDIAVEWESNGQPENNYKTTPPVLDSDGSFFLVSRLTVDKSRWQEGNVFSCSVMHEALHNHYTQKSLSLSLGKGGGGSGGGGSEVQLLESGGGLVQPGGSLRLSCAASGFTFGNYDMAWVRQAPGKRPEWVSSIDTGGDITHYADSVKGRFTISRDNAKNTLYLQMNSLRPEDTAVYWCATDEEYALGPNEFDYYGQGTLVTVSS | – | 19.5 | 99 | 4 | 3
